According to article PMC6704107 (2019):

B1: Adeno-associated virus receptor (AAVR), wild-type, PKD1-5 domains [not stated] / Adeno-associated virus 1 (AAV1) particle, wild-type capsid [adeno-associated virus 1 (AAV1)] (parent complex)
chain 1: MEKRLGVKPNPASWILSGYYWQTSAKWLRSLYLFYTCFCFSVLWLSTDASESRCQQGKTQFGVGLRSGGENHLWLLEGTPSLQSCWAACCQDSACHVFWWLEGMCIQADCSRPQSCRAFRTHSSNSMLVFLKKFQTADDLGFLPEDDVPHLLGLGWNWASWRQSPPRAALRPAVSSSDQQSLIRKLQKRGSPSDVVTPIVTQHSKVNDSNELGGLTTSGSAEVHKAITISSPLTTDLTAELSGGPKNVSVQPEISEGLATTPSTQQVKSSEKTQIAVPQPVAPSYSYATPTPQASFQSTSAPYPVIKELVVSAGESVQITLPKNEVQLNAYVLQEPPKGETYTYDWQLITHPRDYSGEMEGKHSQILKLSKLTPGLYEFKVIVEGQNAHGEGYVNVTVKPEPRKNRPPIAIVSPQFQEISLPTTSTVIDGSQSTDDDKIVQYHWEELKGPLREEKISEDTAILKLSKLVPGNYTFSLTVVDSDGATNSTTANLTVNKAVDYPPVANAGPNQVITLPQNSITLFGNQSTDDHGITSYEWSLSPSSKGKVVEMQGVRTPTLQLSAMQEGDYTYQLTVTDTIGQQATAQVTVIVQPENNKPPQADAGPDKELTLPVDSTTLDGSKSSDDQKIISYLWEKTQGPDGVQLENANSSVATVTGLQVGTYVFTLTVKDERNLQSQSSVNVIVKEEINKPPIAKITGNVVITLPTSTAELDGSKSSDDKGIVSYLWTRDEGSPAAGEVLNHSDHHPILFLSNLVEGTYTFHLKVTDAKGESDTDRTTVEVKPDPRKNNLVEIILDINVSQLTERLKGMFIRQIGVLLGVLDSDIIVQKIQPYTEQSTKMVFFVQNEPPHQIFKGHEVAAMLKSELRKQKADFLIFRALEVNTVTCQLNCSDHGHCDSFTKRCICDPFWMENFIKVQLRDGDSNCEWSVLYVIIATFVIVVALGILSWTVICCCKRQKGKPKRKSKYKILDATDQESLELKPTSRAGIKQKGLLLSSSLMHSESELDSDDAIFTWPDREKGKLLHGQNGSVPNGQTPLKARSPREEIL
chain 2: MAADGYLPDWLEDNLSEGIREWWDLKPGAPKPKANQQKQDDGRGLVLPGYKYLGPFNGLDKGEPVNAADAAALEHDKAYDQQLKAGDNPYLRYNHADAEFQERLQEDTSFGGNLGRAVFQAKKRVLEPLGLVEEGAKTAPGKKRPVEQSPQEPDSSSGIGKTGQQPAKKRLNFGQTGDSESVPDPQPLGEPPATPAAVGPTTMASGGGAPMADNNEGADGVGNASGNWHCDSTWLGDRVITTSTRTWALPTYNNHLYKQISSASTGASNDNHYFGYSTPWGYFDFNRFHCHFSPRDWQRLINNNWGFRPKRLNFKLFNIQVKEVTTNDGVTTIANNLTSTVQVFSDSEYQLPYVLGSAHQGCLPPFPADVFMIPQYGYLTLNNGSQAVGRSSFYCLEYFPSQMLRTGNNFTFSYTFEEVPFHSSYAHSQSLDRLMNPLIDQYLYYLNRTQNQSGSAQNKDLLFSRGSPAGMSVQPKNWLPGPCYRQQRVSKTKTDNNNSNFTWTGASKYNLNGRESIINPGTAMASHKDDEDKFFPMSGVMIFGKESAGASNTALDNVMITDEEEIKATNPVATERFGTVAVNFQSSSTDPATGDVHAMGALPGMVWQDRDVYLQGPIWAKIPHTDGHFHPSPLMGGFGLKNPPPQILIKNTPVPANPPAEFSATKFASFITQYSTGQVSVEIEWELQKENSKRWNPEVQYTSNYAKSANVDFTVDNNGLYTEPRPIGTRYLTRPL

Variants of: B1
Assay: SPR (BIAcore); parent: 13.9 nM

Row | Variant | Kd [µM]
1 | chain 1 V427A | 35.8
2 | chain 1 T426A | 46.9
3 | chain 1 S425A | 3.68
